Reference: IntAct's records for PubMed 16888623

B1: Mucin-1 (Homo sapiens), P15941-12 (parent)
chain: MTPGTQSPFFLLLLLTVLTATTAPKPATVVTGSGHASSTPGGEKETSATQRSSVPSSTEKNAFNSSLEDPSTDYYQELQRDISEMAVCQCRRKNYGQLDIFPARDTYHPMSEYPTYHTHGRYVPPSSTDRSPYEKVSAGNGGSSLSYTNPAVAATSANL

Variants of: B1
Conditions: with abl1_human ABL1, P00519
Chain of abl1_human ABL1, P00519 (P00519 whole entry): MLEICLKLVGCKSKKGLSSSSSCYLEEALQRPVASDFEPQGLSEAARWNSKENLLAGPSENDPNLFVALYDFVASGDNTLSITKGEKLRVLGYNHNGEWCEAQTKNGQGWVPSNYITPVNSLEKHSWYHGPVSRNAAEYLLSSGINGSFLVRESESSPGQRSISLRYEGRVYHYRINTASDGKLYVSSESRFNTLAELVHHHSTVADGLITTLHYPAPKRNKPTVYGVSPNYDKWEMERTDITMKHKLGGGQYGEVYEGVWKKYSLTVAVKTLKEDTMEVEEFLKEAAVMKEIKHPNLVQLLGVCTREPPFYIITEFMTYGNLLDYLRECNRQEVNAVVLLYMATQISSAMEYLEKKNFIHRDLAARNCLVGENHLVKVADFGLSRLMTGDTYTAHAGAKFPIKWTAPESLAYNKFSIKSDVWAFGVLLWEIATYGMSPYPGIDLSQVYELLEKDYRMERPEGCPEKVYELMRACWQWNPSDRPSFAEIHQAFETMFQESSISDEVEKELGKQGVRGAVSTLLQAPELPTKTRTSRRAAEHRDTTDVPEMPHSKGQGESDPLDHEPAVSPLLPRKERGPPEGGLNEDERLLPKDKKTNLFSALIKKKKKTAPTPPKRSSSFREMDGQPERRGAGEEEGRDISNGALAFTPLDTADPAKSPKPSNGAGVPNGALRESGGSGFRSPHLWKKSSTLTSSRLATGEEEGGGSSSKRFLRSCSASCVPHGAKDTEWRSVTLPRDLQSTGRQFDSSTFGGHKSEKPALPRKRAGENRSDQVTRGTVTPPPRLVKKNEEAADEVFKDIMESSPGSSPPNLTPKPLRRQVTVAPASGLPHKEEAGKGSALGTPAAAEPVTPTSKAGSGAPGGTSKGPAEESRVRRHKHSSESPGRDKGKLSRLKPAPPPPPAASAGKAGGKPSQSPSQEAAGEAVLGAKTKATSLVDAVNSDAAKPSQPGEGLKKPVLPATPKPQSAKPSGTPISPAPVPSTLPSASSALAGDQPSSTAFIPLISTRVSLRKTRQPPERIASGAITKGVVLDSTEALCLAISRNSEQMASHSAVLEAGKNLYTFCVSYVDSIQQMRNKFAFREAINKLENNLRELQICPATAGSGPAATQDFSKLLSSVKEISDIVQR

| Variant | effect of a mutation on the interaction |
| --- | --- |
| MTPGTQSPFFLLLLLTVLTATTAPKPATVVTGSGHASSTPGGEKETSATQRSSVPSSTEKNAFNSSLEDPSTDYYQELQRDISEMAVCQCRRKNYGQLDIFPARDTYHPMSEYPTYHTHGRYVPPSSTDRSPYEKVSAGNGGSSLSFTNPAVAATSANL [Y147F] | disrupting interaction |
